Data on 3 compounds can be found in PMC9864903, “Imaging of the Glucose-Dependent Insulinotropic Polypeptide Receptor Using a Novel Radiolabeled Peptide Rationally Designed Based on Endogenous GIP and Synthetic Exendin-4 Sequences” (Pharmaceuticals, 2022).

Entries after “also recorded” stand apart in the source; their conditions may differ.

A short description of data set [1]: chemical stability of Ga-C803-GIP at ambient temperature and pH 4.5. The note with it: for at least one week at ambient temperature and pH 4.5. In kind it is physicochemical. An excerpt:
C803-GIP has a sequence partially similar to that of hGIP(1-30), wherein L-Alanine at position 2 was exchanged to D-Alanine, Methionine at position 14 was exchanged to Leucine, Aspartic acid at position 21 was exchanged to Glutamic acid, Valine at position 23 was exchanged to Isoleucine, Asparagine at position 24 was exchanged to Glutamic acid, Leucine at position 27 was exchanged to Lysine, and both Glutamine at position 29 and Lysine at position 30 were exchanged to Glycine. The sequence was amended with Histidine (31), Proline (32), and seven more residues corresponding to those found in exendin-4 (Serine(33)-Glycine(34)-Alanine(35)-Proline(36)-Proline(37)-Proline(38)-Serine(39)). The peptide sequence was conjugated via terminal Serine(39) to a DOTA chelator moiety functionalized with a vinyl sulfone linker and cysteine amide (Table 1). C803-GIP was loaded with stable isotopes of gallium to yield Ga-C803-GIP for the subsequent investigation of the stability and biological activity. Ga-C803-GIP was stable with a purity of over 95% for at least one week at ambient temperature and pH 4.5.

The nature of data set [2]: pharmacokinetics in rats after subcutaneous administration. The format is in vivo. The conditions noted are these: rat. An excerpt: The potency of the peptide conjugate in terms of EC50 was studied using C803-GIP and C803-GIP loaded with a stable isotope of gallium (Ga-C803-GIP) in HEK293 cells transfected with the GIPR from human, monkey (NHP), and rat species. In addition, the cross-reactivity was studied in HEK293 cells transfected with the GLP1-R and GCGR. […] In contrast, the EC50 for the rat GIPR was one order of magnitude poorer. […] The pharmacokinetic properties were investigated in vivo in rats. […] The average plasma concentration calculated to the infinity (AUCinf) was 1370 h*ng/mL.
Figure 1 Plasma concentration of Ga-C803-GIP measured at 3, 6, 9.6, 19.8, 30, 60, 120, and 240 min post subcutaneous administration in rats (n = 3). The error bars are not seen due to the low SD values.

Data set [3] can be described thus: dynamic PET/CT organ distribution in pig. In kind it is in vivo. The note with it: infusion of GIP(1-42) 20 pmol/kg/min. The text has this: An anesthetized pig (25 kg) was positioned to include the abdomen with pancreas in the center of the 25 cm axial field of view of a Discovery MI PET/CT scanner (GE Healthcare, MI, USA) by assistance of a low-dose CT scout view (140 kV, 10 mAs). The details of the animal handling, preparation, and anesthesia have been previously described.
Attenuation correction was acquired by a 140 kV, 10–80 mA CT examination. The administration of [^68Ga]Ga-C803-GIP (17.3 MBq, corresponding to approximately 2.5 μg peptide or 0.10 μg/kg) was made upon the start of the baseline dynamic scan lasting for 90 min (30 frames; […]). The dynamic scan was followed by a static scan over the brain from 90–120 min post administration. A second PET investigation was performed after an additional 2 h to allow the radioactivity from the first scan to fade from the circulation by decay and excretion.
The GIP(1-42) infusion was continued until the end of the PET scan. Finally, after the last PET scan, a contrast-enhanced CT scan was performed to assist delineation of the tissues, e.g., the pancreas.
Segmentation of the tissues of interest (descending aorta, pancreas, spleen, kidney, liver, and muscle) was performed in PMOD (PMOD Technologies), and time–activity curves were expressed as SUV as detailed above.

The subject of the next data set is GIPR. The note with it: affinity for the GIPR; cited from earlier work. An excerpt:
This effect may be due to the exchange of Aib(2) to A(2), L(10) to Y(10), R(16) to K(16), E(20) to Q(20), L(27) to K(27), K(31) to H(31), and the addition of the C-terminal tail ((32-39); […]). [^68Ga]Ga-C803-GIP was furthermore evaluated for its affinity, internalization, and binding specificity towards the GIPR.

As usually defined, the half-life is the time in which the quantity being followed falls by half. Higher therefore signals slow decline. As for `CC[C@H](C)[C@H](NC(=O)[C@H](CO)NC(=O)[C@H](Cc1ccc(O)cc1)NC(=O)[C@H](CC(=O)O)NC(=O)[C@H](CO)NC(=O)[C@@H](NC(=O)[C@H](Cc1ccccc1)NC(=O)[C@@H](NC(=O)CNC(=O)[C@H](CCC(=O)O)NC(=O)[C@@H](C)NC(=O)[C@@H](N)Cc1ccc(O)cc1)[C@@H](C)O)[C@@H](C)CC)C(=O)N[C@@H](C)C(=O)N[C@@H](CC(C)C)C(=O)N[C@@H](CC(=O)O)C(=O)N[C@@H](CCCCN)C(=O)N[C@H](C(=O)N[C@@H](Cc1c[nH]cn1)C(=O)N[C@@H](CCC(N)=O)C(=O)N[C@@H](CCC(N)=O)C(=O)N[C@@H](CCC(=O)O)C(=O)N[C@@H](Cc1ccccc1)C(=O)N[C@H](C(=O)N[C@@H](CCC(=O)O)C(=O)N[C@@H](Cc1c[nH]c2ccccc12)C(=O)N[C@@H](CC(C)C)C(=O)N[C@@H](CCCCN)C(=O)N[C@@H](C)C(=O)NCC(=O)NCC(=O)N[C@@H](Cc1c[nH]cn1)C(=O)N1CCC[C@H]1C(=O)N[C@@H](CO)C(=O)NCC(=O)N[C@@H](C)C(=O)N1CCC[C@H]1C(=O)N1CCC[C@H]1C(=O)N1CCC[C@H]1C(=O)N[C@@H](CO)C(=O)N[C@@H](CSCCS(=O)(=O)CCN1CCN(CC(=O)O)CCN(CC(=O)O)CCN(CC(=O)O)CC1)C(N)=O)[C@@H](C)CC)[C@@H](C)CC` [Ga-C803-GIP], the “purity on storage (stability)” value in data set [1] is listed as “over 95%”. The compound also showed a half-life in data set [2] (plasma, sc, 1 mg/kg, n = 3) of 22.8 min. In addition, in data set [2] (1 mg/kg, n = 3), the AUCinf was 1370 ng·h/mL and the “plasma clearance (CL)” value stood at 12.2 mL/min/kg. Also, the “plasma concentration at the 240 min time point” value in data set [2] (n = 3, 240 min post administration) is listed as “below the limit of detection”.
For “YAEGTFISDYSIAMDKIHQQDFVNWLLAQKGKKNDWKHNITQ [GIP(1-42), reference compound]”, in data set [3], the “effect of GIP(1-42) on uptake of [68Ga]Ga-C803-GIP in tissues” value was “did not reduce the uptake; also recorded: did not affect the uptake pattern”.
What is called IC50 is the concentration that gives 50% inhibition. As to [Lys37(111In-DTPA)]N-acetyl-GIP1-42, the IC50 in the data set with GIPR is 4.8 µM.
